# Test results reported in PMC2443190, “Novel Intermolecular Iterative Mechanism for Biosynthesis of Mycoketide Catalyzed by a Bimodular Polyketide Synthase” (PLoS Biology, 2008).
# Target: PKS12Δ1 E20S mutant protein (M. tuberculosis H37Rv) (UniProt I6XD69)
substance,measurement,value
PKS12Δ1 E20S mutant protein (from UniProt I6XD69 1-4151) (enzyme),catalytic turnover (fold decrease),5
same,product formation by quantitative radio-HPLC (fold decrease),> 5
